This passage reports stoichiometry N results from paper PMC9713717.

The experiment addresses T1, human NKCC1 (sodium-potassium-chloride transporter NKCC1, SLC12A2) (human), P55011.
T1 chain: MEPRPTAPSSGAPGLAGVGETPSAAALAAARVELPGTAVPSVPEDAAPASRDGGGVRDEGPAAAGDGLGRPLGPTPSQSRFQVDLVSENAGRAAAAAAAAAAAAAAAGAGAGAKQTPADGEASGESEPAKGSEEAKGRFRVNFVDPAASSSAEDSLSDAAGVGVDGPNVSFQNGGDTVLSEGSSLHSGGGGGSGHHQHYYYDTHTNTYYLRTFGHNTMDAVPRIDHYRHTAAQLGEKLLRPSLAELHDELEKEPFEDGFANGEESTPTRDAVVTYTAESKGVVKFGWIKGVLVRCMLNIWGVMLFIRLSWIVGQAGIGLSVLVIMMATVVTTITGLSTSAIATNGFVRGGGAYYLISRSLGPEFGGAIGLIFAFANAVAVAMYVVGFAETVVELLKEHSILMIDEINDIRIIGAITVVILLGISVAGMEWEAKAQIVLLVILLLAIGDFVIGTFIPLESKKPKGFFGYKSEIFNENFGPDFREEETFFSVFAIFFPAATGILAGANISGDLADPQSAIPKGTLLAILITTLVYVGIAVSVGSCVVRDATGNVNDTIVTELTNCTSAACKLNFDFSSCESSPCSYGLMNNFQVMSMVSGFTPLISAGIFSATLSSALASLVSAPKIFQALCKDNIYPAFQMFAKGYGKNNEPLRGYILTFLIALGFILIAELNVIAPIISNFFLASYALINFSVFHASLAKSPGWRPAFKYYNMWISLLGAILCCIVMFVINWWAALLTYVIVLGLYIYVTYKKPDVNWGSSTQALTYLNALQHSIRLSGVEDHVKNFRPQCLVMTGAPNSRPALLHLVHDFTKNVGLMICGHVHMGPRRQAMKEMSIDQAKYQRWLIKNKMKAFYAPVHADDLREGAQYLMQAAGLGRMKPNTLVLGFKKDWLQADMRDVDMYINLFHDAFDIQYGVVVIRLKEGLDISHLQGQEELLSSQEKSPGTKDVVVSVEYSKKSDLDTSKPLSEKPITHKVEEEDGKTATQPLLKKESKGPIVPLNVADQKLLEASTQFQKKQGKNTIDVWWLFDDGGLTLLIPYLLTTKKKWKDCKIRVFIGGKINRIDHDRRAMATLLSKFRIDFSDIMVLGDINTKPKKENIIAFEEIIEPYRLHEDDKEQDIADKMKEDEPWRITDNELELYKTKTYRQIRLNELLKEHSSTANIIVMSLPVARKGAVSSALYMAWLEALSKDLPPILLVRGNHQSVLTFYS
The experiment is described as follows: cryo-EM structure. Particulars: remark: other sources report otherwise.

B1: human NKCC1 (sodium-potassium-chloride transporter NKCC1, SLC12A2), P55011 1-1212 (natural protein)
chain: T1 chain
Regarding B1, the stoichiometry N came to 2.
